{"source": "patent US20170015742A1", "about": "(published 2017)", "binders": {"B1": {"name": "hBEW-9A8.17 (antibody, V domains shown)", "VH": "EIQLVQSGSELKKPGASVKVSCKASGYTFTNYGMYWVKQAPGQGLEYMGWINTETGKPIYADDFKGRFVFSLDTSVSTAYLQISSLKAEDTAVYYCARVDYDGSFWFAYWGQGTLVTVSS", "VL": "ETVLTQSPATLSLSPGERATLSCRASESVSTVIHWYQQKPGQQPRLLIHGASNLESGVPARFSGSGSGTDFTLTISSLEPEDFAVYFCQQHWNDPPTFGQGTKLEIK", "notes": "Humanized IgG made from pHybE vectors in HEK293 cells"}, "B2": {"name": "hBEW-9A8.21 (antibody, V domains shown)", "VH": "EIQLVQSGAEVKKPGASVKVSCKASGYTFTNYGMYWVRQAPGQGLEWMGWINTETGKPIYADDFKGRFTFTLDTSTSTAYMELRSLRSDDTAVYYCARVDYDGSFWFAYWGQGTLVTVSS", "VL": "B1 VL", "notes": "as for B1"}, "B3": {"name": "hBEW-1B10.1 (antibody, V domains shown)", "VH": "EVQLVESGGGLVQPGGSLRLSCAASGFSFSKYDMAWFRQAPGKGLEWVASITTSGVGTYYRDSVKGRFTVSRDNAKSTLYLQMNSLRAEDTAVYYCARGYGAMDAWGQGTTVTVSS", "VL": "DIQMTQSPSSLSASVGDRVTITCKASQDIDDYLSWYQQKPGKSPKLVIYAATRLADGVPSRFSGSGSGTDYTLTISSLQPEDFATYYCLQSSSTPWTFGGGTKVEIK", "notes": "as for B1"}, "B4": {"name": "hBEW-1B10.2 (antibody, V domains shown)", "VH": "B3 VH with S77N, T78S", "VL": "B3 VL", "notes": "as for B1"}, "B5": {"name": "hBEW-9E10.1 (antibody, V domains shown)", "VH": "EIQLVQSGSELKKPGASVKVSCKASGYTFTNYGMYWVKQAPGQGLEYMGWIDTETGRPTYADDFKGRFVFSLDTSVSTAYLQISSLKAEDTAVYFCARWSGDTTGIRGPWFAYWGQGTLVTVSS", "VL": "DIRMTQSPSSLSASVGDRVTIECLASEDIYSDLAWYQQKPGKSPKLLIYNANGLQNGVPSRFSGSGSGTDYSLTISSLQPEDVATYFCQQYNYFPGTFGQGTKLEIK", "notes": "Humanized IgG made from pHybE vectors in HEK293 cells; also called AB642 (9E10.1)"}, "B6": {"name": "hBEW-9E10.2 (antibody, V domains shown)", "VH": "EIQLVQSGAEVKKPGSSVKVSCKASGYTFTNYGMYWVKQAPGQGLEYMGWIDTETGRPTYADDFKGRFTFTADKSTSTAYMELSSLRSEDTAVYFCARWSGDTTGIRGPWFAYWGQGTLVTVSS", "VL": "B5 VL", "notes": "as for B1"}, "B7": {"name": "hBEW-9E10.5 (antibody, V domains shown)", "VH": "B6 VH", "VL": "B5 VL with E22T, S72T", "notes": "as for B1"}, "B8": {"name": "hBEW-9E10.6 (antibody, V domains shown)", "VH": "B6 VH with I2V, K38R, Y47W, F95Y", "VL": "B5 VL with E22T, S72T", "notes": "as for B1"}, "B9": {"name": "hBEW-9E10.3 (antibody, V domains shown)", "VH": "B6 VH with I2V, K38R, Y47W, F95Y", "VL": "B5 VL", "notes": "as for B1"}, "B10": {"name": "hBEW-9E10.4 (antibody, V domains shown)", "VH": "B5 VH", "VL": "B5 VL with E22T, S72T", "notes": "as for B1"}, "B11": {"name": "hBEW-5C3.1 (antibody, V domains shown)", "VH": "EIQLVQSGSELKKPGASVKVSCKASGYTFTNYGVYWVKQAPGQGLEYMGWINTETGKPTYADDFKGRFVFSLDTSVSTAYLQISSLKAEDTAVYYCARARQLDWFVYWGQGTLVTVSS", "VL": "DTVLTQSPATLSLSPGERATLSCRARESLTTSLSWFQQKPGQQPRLLIYGASKLESGVPARFSGSGSGTDFTLTISSLEPEDFAVYFCQQSWYDPPTFGGGTKVEIK", "notes": "as for B1"}, "B12": {"name": "hBEW-5C3.4 (antibody, V domains shown)", "VH": "B11 VH", "VL": "DTQLTQSPSSLSASVGDRVTISCRARESLTTSLSWFQQKPGKQPKLLIYGASKLESGVPSRFSGSGSGTDFTLTISSLQPEDFATYFCQQSWYDPPTFGGGTKVEIK", "notes": "as for B1"}, "B13": {"name": "hBEW-5C3.5 (antibody, V domains shown)", "VH": "EIQLVQSGAEVKKPGSSVKVSCKASGYTFTNYGVYWVKQAPGQGLEYMGWINTETGKPTYADDFKGRFTFTLDKSTSTAYMELSSLRSEDTAVYFCARARQLDWFVYWGQGTLVTVSS", "VL": "B12 VL", "notes": "as for B1"}, "B14": {"name": "hBDI-9E8.1 (antibody, V domains shown)", "VH": "EVTLRESGPALVKPTQTLTLTCTFSGFSLSTYGMGVGWIRQPPGKALEWLANIWWDDDKYYNPSLKNRLTISKDTSKNQVVLTMTNMDPVDTATYYCARIESIGTTYSFDYWGQGTMVTVSS", "VL": "NFMLTQPHSVSESPGKTVTISCERSSGDIGDSYVSWYQQRPGSSPTTVIYADDQRPSGVPDRFSGSIDSSSNSASLTISGLKTEDEADYYCQSYDINIDIVFGGGTKLTVL", "notes": "Humanized IgG"}, "B15": {"name": "hBDI-9E8.10 (antibody, V domains shown)", "VH": "B14 VH with V80A, M84I, M117T", "VL": "DFQLTQSPSSLSASVGDRVTITCERSSGDIGDSYVSWYQQKPGKAPKNVIYADDQRPSGVPSRFSGSGSGNSASLTISSLQPEDFATYYCQSYDINIDIVFGQGTKVEIK", "notes": "Humanized IgG"}, "B16": {"name": "hBDI-5H1.1 (antibody, V domains shown)", "VH": "EVTLRESGPALVKPTQTLTLTCTFSGFSLSTFGMGVGWIRQPPGKALEWLANIWWDDDKYYNPSLKNRLTISKDTSKNQVVLTMTNMDPVDTATYYCARISTGISSYYVMDAWGQGTTVTVSS", "VL": "B14 VL with S32T, A51G, D52N, I96S, N97D", "notes": "Humanized IgG"}, "B17": {"name": "hBDI-9E8.9 (antibody, V domains shown)", "VH": "B14 VH with V80A, M84I, M117T", "VL": "DFVLTQSPDSLAVSLGERATINCERSSGDIGDSYVSWYQQKPGQPPKNVIYADDQRPSGVPDRFSGSGSGNSASLTISSLQAEDVAVYFCQSYDINIDIVFGGGTKVEIK", "notes": "Humanized IgG"}, "B18": {"name": "hBDI-9E8.3 (antibody, V domains shown)", "VH": "B14 VH", "VL": "EIVLTQSPGTLSLSPGERATLSCERSSGDIGDSYVSWYQQKPGQAPRLLIYADDQRPSGIPDRFSGSGSGTDFTLTISRLEPEDFAVYYCQSYDINIDIVFGGGTKVEIK", "notes": "Humanized IgG"}, "B19": {"name": "hBDI-9E8.6 (antibody, V domains shown)", "VH": "B14 VH with A46G, V80A, M84I", "VL": "B14 VL with S44P, T47N, Y90F", "notes": "Humanized IgG"}, "B20": {"name": "hBDI-5H1.6 (antibody, V domains shown)", "VH": "B16 VH with R5K, V80A, M84I", "VL": "B14 VL with S32T, S44P, T47N, A51G, D52N, Y90F, I96S, N97D", "notes": "Humanized IgG"}, "B21": {"name": "hBDI-9E8.4 (antibody, V domains shown)", "VH": "B14 VH", "VL": "B18 VL with I2F, L49V", "notes": "Humanized IgG"}, "B22": {"name": "hBDI-9E8.7 (antibody, V domains shown)", "VH": "B14 VH with A46G, V80A, M84I", "VL": "B18 VL", "notes": "Humanized IgG"}, "B23": {"name": "hBDI-9E8.5 (antibody, V domains shown)", "VH": "B14 VH with A46G, V80A, M84I", "VL": "B14 VL", "notes": "Humanized IgG"}, "B24": {"name": "hBDI-5H1.5 (antibody, V domains shown)", "VH": "B16 VH with R5K, V80A, M84I", "VL": "B14 VL with S32T, A51G, D52N, I96S, N97D", "notes": "Humanized IgG"}, "B25": {"name": "hBDI-5H1.2 (antibody, V domains shown)", "VH": "B16 VH", "VL": "B14 VL with S32T, S44P, T47N, A51G, D52N, Y90F, I96S, N97D", "notes": "Humanized IgG"}, "B26": {"name": "hBDI-9E8.2 (antibody, V domains shown)", "VH": "B14 VH", "VL": "B14 VL with S44P, T47N, Y90F", "notes": "Humanized IgG"}, "B27": {"name": "hBDI-9E8.11 (antibody, V domains shown)", "VH": "EVQLVESGGGLVQPGGSLRLSCAFSGFSLSTYGMGVGWIRQAPGKGLEWLANIWWDDDKYYNPSLKNRLTISKDTSKNQAYLQINSLRAEDTAVYYCARIESIGTTYSFDYWGQGTLVTVSS", "VL": "B17 VL", "notes": "Humanized IgG"}, "B28": {"name": "hBDI-9E8.12 (antibody, V domains shown)", "VH": "B27 VH", "VL": "B15 VL", "notes": "Humanized IgG"}}, "note": "Changes are numbered by the printed parent chain."}
{"target": "T1, human VEGF-A (human, UniProt P15692-4 27-191, limits assumed)", "T1 construct": "also called huVEGF-A", "T1 sequence (P15692 other isoform, or with tags, fused parts or gaps limits assumed)": "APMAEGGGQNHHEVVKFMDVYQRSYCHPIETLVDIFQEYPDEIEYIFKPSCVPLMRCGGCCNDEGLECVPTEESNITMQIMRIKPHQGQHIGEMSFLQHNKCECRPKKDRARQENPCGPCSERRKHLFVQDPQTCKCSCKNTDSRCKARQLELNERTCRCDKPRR", "assay": "SPR (Biacore), antibody captured by anti-human Fc, VEGF-A injected", "procedure": "(§1) For example, approximately 9000 RU of goat anti-human Fc specific polyclonal antibody (Thermo Fisher Scientific Inc., Rockford, Ill.) diluted in 10 mM sodium acetate (pH 4.5) is directly immobilized across a CM5 research grade biosensor chip using a standard amine coupling kit according to manufacturer's instructions and procedures at 25 μg/ml. Unreacted moieties on the biosensor surface were blocked with ethanolamine. For kinetic analysis, rate equations derived from the 1:1 Langmuir binding model were fitted simultaneously to multiple antigen injections (using global fit analysis) with the use of Scrubber 2 (BioLogic Software), Biacore Biaevaluation 4.0.1 software or Biacore T100 Evaluation software. Purified antibodies or DVD-Ig molecules were diluted in running buffer for capture across goat anti-human Fc reaction surfaces. Antibodies or DVD-Ig molecules to be captured as a ligand (1 μg/ml) were injected over reaction matrices at a flow rate of 10 μl/minute. During the assay, all measurements were referenced against the capture surface alone (i.e., with no captured antibody or DVD-Ig molecule). […] The equilibrium dissociation constant KD (M) of the reaction between antibodies and the target antigen was then calculated from the kinetic rate constants by the following formula: KD=Koff/Kₒₙ. Binding was recorded as a function of time and kinetic rate constants were calculated.", "units": {"Kd": "pM", "kon": "M⁻¹ s⁻¹"}}
{"binder": "B1", "Kd": 1.7, "kon": "7.9e+06"}
{"binder": "B2", "Kd": 6.7, "kon": "5.8e+06"}
{"binder": "B3", "Kd": 18, "kon": "7.6e+06"}
{"binder": "B4", "Kd": 20, "kon": "7.5e+06"}
{"binder": "B5", "Kd": 2.1, "kon": "1.2e+07"}
{"binder": "B6", "Kd": 12, "kon": "1.6e+07"}
{"binder": "B7", "Kd": 15, "kon": "1.6e+07"}
{"binder": "B8", "Kd": 2.6, "kon": "1.5e+07"}
{"binder": "B9", "Kd": 3.2, "kon": "1.3e+07"}
{"binder": "B10", "Kd": 2.1, "kon": "1.2e+07"}
{"binder": "B11", "Kd": 6, "kon": "1.1e+07"}
{"binder": "B12", "Kd": 8.6, "kon": "9.9e+06"}
{"binder": "B13", "Kd": 8.5, "kon": "1.2e+07"}
{"target": "T2, Human PDGF-BB (human, UniProt P01127 82-190)", "T2 construct": "Recombinant human PDGF-BB, a homodimer of two B chains; also called hPDGF-BB; huPDGF-BB", "T2 sequence (P01127 82-190 limits assumed)": "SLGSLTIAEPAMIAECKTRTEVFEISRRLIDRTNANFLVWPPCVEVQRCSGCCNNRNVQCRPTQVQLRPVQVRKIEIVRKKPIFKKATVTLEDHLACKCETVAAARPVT", "assay": "SPR (Biacore), antibody captured via anti-human Fc, antigen in solution", "procedure": "as §1", "units": {"Kd": "pM", "kon": "M⁻¹ s⁻¹"}}
{"binder": "B14", "Kd": "≤ 560", "kon": "≥ 1e+07"}
{"binder": "B15", "Kd": "≤ 180", "kon": "≥ 1e+07"}
{"binder": "B16", "Kd": "≤ 410", "kon": "≥ 1e+07"}
{"binder": "B17", "Kd": "≤ 150", "kon": "≥ 1e+07"}
{"binder": "B18", "Kd": "≤ 65", "kon": "≥ 1e+07"}
{"binder": "B19", "Kd": "≤ 210", "kon": "≥ 1e+07"}
{"binder": "B20", "Kd": "≤ 82", "kon": "≥ 1e+07"}
{"binder": "B21", "Kd": "≤ 21", "kon": "> 1e+07"}
{"binder": "B22", "Kd": "≤ 45", "kon": "≥ 1e+07"}
{"binder": "B23", "Kd": "≤ 210", "kon": "≥ 1e+07"}
{"binder": "B24", "Kd": "≤ 170", "kon": "≥ 1e+07"}
{"binder": "B25", "Kd": "≤ 190", "kon": "≥ 1e+07"}
{"binder": "B26", "Kd": "≤ 510", "kon": "≥ 1e+07"}
{"binder": "B27", "Kd": "≤ 74", "kon": "≥ 1e+07"}
{"binder": "B28", "Kd": "≤ 210", "kon": "≥ 1e+07"}
